How the values were obtained:
[1] = molecular target: T1, kappa-sCD40(1-94)-Flag point mutant E1G (human, UniProt P25942 22-114); assay: ELISA, mutated kappa-sCD40(1-94)-Flag captured on anti-Flag antibody, detection anti-human IgG Fc-HRP; the concentration axis is taken as that of 3C3
T1 construct: not shown: N-terminal human kappa light chain; C-terminal Flag tag
Description: (§1) 1 μg/ml of purified kappa-sCD40-Flag fusion proteins or CHO cell supernatants containing the sCD40 fusion proteins were captured to microtiter plates that were pre-coated with 5 μg/ml mouse anti-Flag antibody (Sigma) in PBS and blocked with 5% bovine serum albumin in PBS. Following incubation with the CD40 antibody, the microplates were washed with PBS/Tween, and incubated with a goat anti-human IgG Fc polyclonal reagent conjugated to horseradish peroxidase. After washing, the plates were developed with HRP substrate, and analyzed at OD 450-650 using a microtiter plate reader. An ELISA with a goat anti-human IgG Fab2-HRP to measure kappa chain binding was carried out in parallel to validate the sCD40 fusion protein expression from different transfections.

[2] = molecular target: T2, kappa-sCD40(1-94)-Flag point mutant T4V (human, UniProt P25942 21-114); assay: as above
T2 construct: not shown: N-terminal human kappa light chain; C-terminal Flag tag
T2 chain: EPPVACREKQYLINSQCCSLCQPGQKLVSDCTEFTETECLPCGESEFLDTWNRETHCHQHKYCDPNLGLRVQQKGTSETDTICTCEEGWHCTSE
Description: as §1

[3] = molecular target: T3, kappa-sCD40(1-94)-Flag point mutant P2Q (human, UniProt P25942 21-114); assay: as above
T3 construct: not shown: N-terminal human kappa light chain; C-terminal Flag tag
T3 chain: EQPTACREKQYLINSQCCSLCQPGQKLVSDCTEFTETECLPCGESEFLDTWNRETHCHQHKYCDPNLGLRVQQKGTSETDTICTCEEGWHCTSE
Description: as §1

[4] = molecular target: T1, kappa-sCD40(1-94)-Flag point mutant E1G; assay: ELISA, kappa-sCD40-Flag fusion (~2 ug/ml) captured on anti-Flag, anti-human IgG Fc-HRP
Description: as §1, with “containing” for “1 μg/ml of purified kappa-sCD40-Flag fusion proteins or CHO cell supernatants containing”

[5] = molecular target: T4, kappa-sCD40(1-94)-Flag point mutant E36K (human, UniProt P25942 21-114); assay: as above
T4 construct: not shown: N-terminal human kappa light chain; C-terminal Flag tag
T4 chain: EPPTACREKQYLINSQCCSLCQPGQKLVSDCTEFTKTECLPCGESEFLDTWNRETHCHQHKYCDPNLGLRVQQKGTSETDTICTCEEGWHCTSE
Description: as §1, with “containing” for “1 μg/ml of purified kappa-sCD40-Flag fusion proteins or CHO cell supernatants containing”

[6] = molecular target: T2, kappa-sCD40(1-94)-Flag point mutant T4V; assay: as above
Description: as §1, with “containing” for “1 μg/ml of purified kappa-sCD40-Flag fusion proteins or CHO cell supernatants containing”

[7] = molecular target: T5, kappa-sCD40(1-94)-Flag point mutant T35E (human, UniProt P25942 21-114); assay: as above
T5 construct: not shown: N-terminal human kappa light chain; C-terminal Flag tag
T5 chain: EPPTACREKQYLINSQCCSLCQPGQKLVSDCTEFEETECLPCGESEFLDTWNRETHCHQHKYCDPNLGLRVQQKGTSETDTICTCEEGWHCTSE
Description: as §1, with “containing” for “1 μg/ml of purified kappa-sCD40-Flag fusion proteins or CHO cell supernatants containing”

[8] = molecular target: T6, kappa-sCD40(1-94)-Flag point mutant A5T (human, UniProt P25942 21-114); assay: as above
T6 construct: not shown: N-terminal human kappa light chain; C-terminal Flag tag
T6 chain: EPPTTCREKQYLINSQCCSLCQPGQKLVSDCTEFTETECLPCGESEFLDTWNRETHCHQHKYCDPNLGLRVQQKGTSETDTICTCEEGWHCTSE
Description: as §1, with “containing” for “1 μg/ml of purified kappa-sCD40-Flag fusion proteins or CHO cell supernatants containing”

[9] = molecular target: T7, kappa-sCD40(1-94)-Flag mutant fragment D (multiple mutations of residues 33-36) (human, UniProt P25942 21-114); assay: as above
T7 construct: The text says only multiple mutations of residues 33-36 (human to mouse differences); that mutant D carries exactly these is inferred; also called D (33-36); not shown: N-terminal human kappa light chain; C-terminal Flag tag
T7 chain: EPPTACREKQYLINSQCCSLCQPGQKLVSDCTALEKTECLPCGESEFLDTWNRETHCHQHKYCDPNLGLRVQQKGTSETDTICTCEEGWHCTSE
Description: as §1, with “containing” for “1 μg/ml of purified kappa-sCD40-Flag fusion proteins or CHO cell supernatants containing”

[10] = molecular target: T8, kappa-sCD40(1-94)-Flag mutant fragment A (multiple mutations of residues 1-5) (human, UniProt P25942 26-114); assay: as above
T8 construct: The text says only multiple mutations of residues 1-5 (human to mouse differences); that mutant A carries exactly these is inferred; also called A (1-5); not shown: N-terminal human kappa light chain; C-terminal Flag tag
Description: as §1, with “containing” for “1 μg/ml of purified kappa-sCD40-Flag fusion proteins or CHO cell supernatants containing”

[11] = molecular target: T9, kappa-sCD40(1-94)-Flag point mutant F34L (human, UniProt P25942 21-114); assay: as above
T9 construct: not shown: N-terminal human kappa light chain; C-terminal Flag tag
T9 chain: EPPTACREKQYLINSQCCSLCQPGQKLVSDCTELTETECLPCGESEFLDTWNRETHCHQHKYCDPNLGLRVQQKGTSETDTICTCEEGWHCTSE
Description: as §1, with “containing” for “1 μg/ml of purified kappa-sCD40-Flag fusion proteins or CHO cell supernatants containing”

[12] = molecular target: T3, kappa-sCD40(1-94)-Flag point mutant P2Q; assay: as above
Description: as §1, with “containing” for “1 μg/ml of purified kappa-sCD40-Flag fusion proteins or CHO cell supernatants containing”

B1: anti-CD40 human monoclonal antibody 3C3 (antibody, human IgG2, kappa, V domains shown)
VH: QVQLVESGGGVVQPGRSLRLSCAGSGFIFSRYGMYWVRQAPGKGLEWVAVIWYDGSYKYYADSVKGRFTISRDNSKNTLYLQMNSLRAEDTAVYYCARESPWYYFDYWGQGTLVTVSS
VL: DIQMTQSPSSLSASVGDRVTITCRASQGISNYLAWYQQKPGKVPKLLIYAASTLQSGVPSRFSGSGSGTDFTLTISSLQPEDVATYYCQKYKSAPFTFGPGTKVDIKR
notes: Human IgG2, C-terminal lysine removed; also called anti-CD40 mAb 3C3; CD40 antibody 3C3
EC50 (read off the curve) [1]: ~0.04 µg/mL | EC50 (read off the curve) [2]: ~0.02 µg/mL | EC50 (read off the curve) [3]: ~0.02 µg/mL | Average OD [4]: 1.97 OD 450-650 | Average OD [5]: 1.37 OD 450-650 | Average OD [6]: 2.15 OD 450-650 | Average OD [7]: 2.07 OD 450-650 | Average OD [8]: 1.13 OD 450-650 | Average OD [9]: 0.124 OD 450-650 | Average OD [10]: 0.167 OD 450-650 | Average OD [11]: 1.88 OD 450-650 | Average OD [12]: 2.08 OD 450-650

— patent US20250115663A1 (CELLDEX THERAPEUTICS, published 2025)
